This test addresses syntaxin 1 (rat (endogenous in PC12)) (UniProt P32851). The test can be described thus: immunostaining of cells or tissue; PC12 membrane sheets incubated in buffer at 37 °C for increasing periods before fixation, immunostained for Munc18–1; no re-binding (large volume of buffer); trace fitted to a double-exponential decay.

The source of these data is paper PMC1570500.

Sequence of UniProt P32851 (P32851 whole entry): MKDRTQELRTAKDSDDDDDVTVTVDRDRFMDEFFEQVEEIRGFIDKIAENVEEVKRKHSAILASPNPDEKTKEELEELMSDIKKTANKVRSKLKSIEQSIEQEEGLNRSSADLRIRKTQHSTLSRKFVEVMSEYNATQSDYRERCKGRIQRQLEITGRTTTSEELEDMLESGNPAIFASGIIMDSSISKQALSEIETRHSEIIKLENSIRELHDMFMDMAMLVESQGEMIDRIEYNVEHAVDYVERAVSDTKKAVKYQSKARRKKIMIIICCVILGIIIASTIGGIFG

“Munc18–1 (from UniProt P61765 1-594) (natural protein)”: the half-time of dissociation from the membrane, fast component of a double-exponential decay stood at 5 s and the half-time of dissociation from the membrane, slow component of a double-exponential decay was 1000 s.
